Measured values published in US11912782B2, “BCMA monoclonal antibody-drug conjugate” (MedImmune, LLC, priority 2017, dated 2024).

Tests used:
MM.1S cells = assay: Cell killing in the presence of soluble BCMA (conditioned media from Ad293 cells expressing human BCMA); type: cell-based; conditions: MM.1S and NCI-H929, sBCMA at levels up to 720 ng/mL
Procedure: (§1) Killing of multiple myeloma and plasma cell leukemia cell lines by antibody-drug conjugates comprising 15B2GL, or affinity-optimized clones thereof, conjugated to SG3249 was evaluated in vitro using the protocol recommended in the CELLTITER-GLO® kit (Promega, Madison, Wis.). Killing of multiple myeloma and plasma cell leukemia cell lines by the free warhead SG3199 also was evaluated using the protocol recommended in the CELLTITER-GLO® kit (Promega, Madison, Wis.). Briefly, 5×10^3 cells in 80 μL RPMI+10% FBS were added to the inner wells of white-walled 96-well plates (Corning® Costar®, Fisher Scientific, Waltham, Mass.). The following BCMA-expressing cell lines were tested: NCI-H929, EJM, MM.1R. JJN3, OPM-2, MM.1S, U266.B1, and L363. BMCA-negative cell lines Raji and Jurkat also were tested. The antibody-drug conjugates were diluted to a 5× stock (2.5 μg/mL) in RPMI+10% FBS. Treatments were then serially diluted 1:3 in RPMI+10% FBS. 20 μL of this series was added to the cells in duplicate, resulting in a 12-point dose curve of antibody-drug conjugate ranging from 0.5 μg/mL at the highest concentration to 3×10^−6 vg/mL at the lowest. Isotype antibody-drug conjugate (IgG1-SG3249 and IgG1-mc-MMAF) and media-only controls also were included. Plates were incubated at 37° C., 5% CO2 for 96 hours. At the end of the incubation period, 100 μL of the Substrate Solution (Promega, Madison Wis.) was added to each well. Luminescence was measured using an EnVision™ Multilabel plate reader (Perkin Elmer, Waltham, Mass.). Data were analyzed and graphed using GraphPad Prism™ software (GraphPad Software, Inc., La Jolla, Calif.), and the half-maximal inhibitory concentration (IC50) was determined.
The ability of the 15B2GL-SG3249 ADC to kill multiple myeloma cells in vitro in the presence of soluble BCMA (sBCMA) as compared to the I09-5G3249 ADC was evaluated in MM.1S cells using the protocol described above, except that tested cell lines also were treated with BCMA-containing conditioned media collected from Ad293 cells expressing human BCMA (FIGS. 3A and 3B). 15B2GL-SG3249 ADC cell killing in the presence of sBCMA also was compared to ADCs comprising the anti-BCMA antibody J6M0, which is described in U.S. Pat. No. 9,273,141.

MM.1S xenograft = assay: MM.1S subcutaneous xenograft model (Example 5); type: in vivo, mouse; conditions: single intravenous dose 1 mg/kg, observed for 99 days post tumor implantation
Excerpt: (§2) Subcutaneous xenograft mouse models of multiple myeloma and plasma cell leukemia were generated by implanting BCMA-expressing multiple myeloma or plasma cell leukemia cell lines (i.e., NCI-H929, JJN-3, MM.1S, and MM.1R) into female CB-17 SCID (C.B-17/IcrHsd-Prkdc-scid) or athymic nude (Foxn1^nu) mice using MATRIGEL™ (BD Biosciences, San Jose, Calif.). Once tumors reached approximately 180 mm^3 (NCI-H929 cells), 190 mm^3 (JJN3 cells), 160 mm^3 (MM.1S cells), or 175 mm^3 (MM.1R cells), mice were randomized based on tumor size and placed into dosing groups and treated with BCMA-targeting ADCs as described below.
Mice were treated with either a single intravenous dose of 15B2GL-SG3249, 109-SG3249, L15-SG3249 ADCs at 1 mg/kg or dosed intravenously with J6M0-mc-MMAF twice weekly at a dose of 1 mg/kg for 4 weeks. Control mice were left untreated.

MM.1R xenograft = assay: MM.1R subcutaneous xenograft model; type: in vivo, mouse; conditions: single intravenous dose 1 mg/kg, observed for 109 days post tumor implantation
Excerpt: as §2
Mice were treated with either a single intravenous dose of 15B2GL-SG3249 at 1 mg/kg or dosed intravenously with J6M0-mc-MMAF weekly at a dose of 3 mg/kg for 4 weeks. Control mice were left untreated.

NCI-H929 xenograft = assay: NCI-H929 subcutaneous xenograft model (Example 5); type: in vivo, mouse; conditions: single intravenous dose 0.3 mg/kg, observed for 99 days post tumor implantation
Excerpt: as §2
Mice were treated with either a single intravenous dose of the ADCs 15B2GL-SG3249, I09-5G3249, L15-SG3249 at 0.3 mg/kg or dosed intravenously with J6M0-mc-MMAF weekly at a dose of 0.3 mg/kg for 2 weeks. Control mice were left untreated.

[1] = tested on: MM stem cells (clonogenic cells in MM bone marrow biopsies); assay: Clonogenic (colony formation) assay on MM patient bone marrow samples; type: cell-based, human
Procedure: In particular, cells were counted using a ViCELL™ counter (Beckmann-Coulter Life Sciences, Indianapolis, Ind.) and resuspended in IMDM+2% FBS at 10-fold higher density than required for plating. METHOCULT™ H4434 Classic (StemCell Technologies, Inc., Vancouver, BC, Canada) was mixed with 2000 cells per mL for MM263, MM284, and MM276, and 4000 cells per mL for MM277 following the manufacturer's instructions. 25-400 ng per mL of the test ADCs 15B2GL-SG3249 and J6M0-mc-MMAF was then added to appropriate tubes. A control IgG1-SG3249 antibody was added at only the high dose of 400 ng per mL. All tubes were vortexed thoroughly to mix and then allowed to sit undisturbed, allowing air bubbles to rise to the top. Once the bubbles had risen, 400 μL was removed with a 16-guage blunt end needle and carefully plated into one well of a 24-well ultralow attachment plate (VWR, Radnor, Pa.). Each treatment was plated in duplicate in the inner wells of the plate. PBS was added to the outer wells and the plate was incubated at 37° C. for 7-10 days. Colonies were counted by eye with documentation of colony formation by scanning plates on a Celigo® Image Cytometer (Nexcelom Biosciences, Lawrence, Mass.).

JJN3 xenograft = assay: JJN3 subcutaneous xenograft model; type: in vivo, mouse; conditions: single intravenous dose 1 mg/kg, observed for 104 days post tumor implantation
Excerpt: as §2
Mice were treated with either a single intravenous dose of 15B2GL-SG3249, 109-SG3249, and L15-SG3249 ADCs at 1 mg/kg, or dosed intravenously with J6M0-mc-MMAF ADC weekly at a dose of 1 mg/kg for 3 weeks. Control mice were left untreated.

Jurkat = assay: In vitro cytotoxicity, CELLTITER-GLO, 96 hours (BCMA-negative line); type: cell-based; conditions: T-lymphocyte, BCMA receptor number 0
Procedure: as §1, with “20 μL of this series was added to the cells in duplicate, resulting in a 12-point dose curve of antibody-drug conjugate ranging from 0.5 μg/mL at the highest concentration to 3×10^−6 vg/mL at the lowest. Isotype antibody-drug conjugate (IgG1-SG3249 and IgG1-mc-MMAF) and media-only controls also were included. Plates were incubated at 37° C., 5% CO2 for 96 hours. At the end of the incubation period, 100 μL of the Substrate Solution (Promega, Madison Wis.) was added to each well.” left out

Raji = assay: as above; type: cell-based; conditions: Burkitt's lymphoma, BCMA receptor number 0
Procedure: as §1, with “20 μL of this series was added to the cells in duplicate, resulting in a 12-point dose curve of antibody-drug conjugate ranging from 0.5 μg/mL at the highest concentration to 3×10^−6 vg/mL at the lowest. Isotype antibody-drug conjugate (IgG1-SG3249 and IgG1-mc-MMAF) and media-only controls also were included. Plates were incubated at 37° C., 5% CO2 for 96 hours. At the end of the incubation period, 100 μL of the Substrate Solution (Promega, Madison Wis.) was added to each well.” left out

B1: 15B2GL-SG3249: ADC: 15B2GL monoclonal antibody site-specifically conjugated to the PBD payload SG3249 (conjugate)
VH: EVQLVESGGGLVKPGGSLRLSCAASGFTFRSYSMNWVRQAPGKGLEWVSSISGSSNYIYYADSVKGRFTISRDNAKNSLYLQMNSLRAEDTAVYYCARGGNYYVEYFQYWGQGTLVTVSS
VL: EIVLTQSPGTLSLSPGERATLSCRASQYISSNYLAWYQQKPGQAPRLLIYGASNRATGIPDRFSGSGSGTDFTLTISRLEPEDFAVYYCQQYGSSPITFGQGTKLEIK
- tumor cells killed (average) (MM.1S cells): 95%
- tumor regrowth (MM.1S xenograft): no evidence of tumor regrowth
- tumor regrowth (MM.1R xenograft): no evidence of tumor regrowth
- tumor regrowth (NCI-H929 xenograft): no evidence of tumor regrowth
- colonies killed / reduction in colony formation ([1]; patient sample MM263, 400 ng/mL): 100%
- colonies killed / reduction in colony formation ([1]; patient sample MM276, 400 ng/mL): 87.5%
- colonies killed / reduction in colony formation ([1]; patient sample MM277, 400 ng/mL): 91%
- colonies killed / reduction in colony formation ([1]; patient sample MM284, 400 ng/mL): 100%
- tumor regrowth (JJN3 xenograft): no evidence of tumor regrowth
- IC50 (Jurkat): >0.5 µg/mL
- IC50 (Raji): >0.5 µg/mL
